Data taken from patent US7803910B2, “Soluble CD164 polypeptides” (Merck Serono S.A., priority 2005, dated 2010).

Assays:
LPS-induced TNFα release = experiment: LPS-induced TNFalpha release in mice (Example 5); assay type: in vivo, C3H mice
Procedure: C3H mice (Elevage Janvier) (8 week old), received E. Coli's LPS (O111:B4, Sigma, 0.3 mg/kg, ip) 15 minutes after the administration of the test molecules. LPS was solubilized in sterile saline. Dexamethasone (0.1 mg/kg, sc) was used as reference. 24 h later, the animals were sacrificed and the blood was sampled. Plasma levels of TNF-αwere determined in serum using an ELISA kit (R&D). Statistical analysis was determined with an ANOVA test followed by a post-test of Dunnett.

female mice (Balb/c) = experiment: Dextran Sodium Sulfate-induced ulcerative colitis model; assay type: in vivo
Procedure: The DSS model of colitis mimics some aspects of the human affection such as macrophage infiltration and up regulation of inflammatory cytokines (i.e. TNFα, IL-1p, IL-6) in the colon mucosa.
Ulcerative colitis (UC) was induced in female mice (Balb/c, 20-22 g, Elevage Janvier) by Dextran Sodium Sulfate (DSS 4%) administered in drinking water (oral route). The mice had free access to DSS during 7 days. Body weight was determined daily. The severity of the UC was assessed by a clinical score estimating the constituency of the stool (0=firm, 1=loose, 2=diarrhea) and the presence of blood (0=no blood, 1=occult blood, 2=gross rectal bleeding). Seven days after the induction of the disease, the animals were sacrificed. The length and the weight of the colon were determined and the ratio Weight/Length/100 g body weight was calculated. The spleen weight was also determined. Blood was sampled to determine serum amyloid protein (SAA) using a specific ELISA.
Test substances or vehicle (PBS/0.02% BSA) was administered at days 3, 4, 5 and 6 after the induction of the UC. Enbrel® (1 mg/kg, sc) was used as reference compound. Three studies were performed as per the following table:
In Study 3, the content of IL-1β in the colon was also measured.

B1: sCD164: SEQ ID NO: 15, mature full-length CD164 extracellular domain (exons 1 to 6), expressed with C-terminal hexa-histidine tag (protein)
chain: DKNTTQHPNVTTLAPISNVTSAPVTSLPLVTTPAPETCEGRNSCVSCFNVSVVNTTCFWIECKDESYCSHNSTVSDCQVGNTTDFCSVSTATPVPTANSTAKPTVQPSPSTTSKTVTTSGTTNNTVTPTSQPVRKSTFDA
modifications: homo sapiens
LPS-induced TNFα release (LPS-induced TNFα release; 1 mg/kg iv, 15 minutes prior to LPS, P<0.001): significantly decrease | TNFα release after LPS induction (LPS-induced TNFα release; previous experiments in this model): decrease TNFα release

B2: sCD164-Fcm: SEQ ID NO: 18, sCD164 fused to an Fc part mutated in the Fc receptor and C1q binding regions (protein, listed as Homo sapiens)
chain: DKNTTQHPNVTTLAPISNVTSAPVTSLPLVTTPAPETCEGRNSCVSCFNVSVVNTTCFWIECKDESYCSHNSTVSDCQVGNTTDFCSVSTATPVPTANSTAKPTVQPSPSTTSKTVTTSGTTNNTVTPTSQPVRKSTFDAEPKSCDKTHTCPPCPAPEAEGAPSVFLFPPKPKDTLMISRTPEVTCVVVDVSHEDPEVKFNWYVDGVEVHNAKTKPREEQYNSTYRVVSVLTVLHQDWLNGKEYKCKVSNKALPSSIEKTISKAKGQPREPQVYTLPPSREEMTKNQVSLTCLVKGFYPSDIAVEWESNGQPENNYKTTPPVLDSDGSFFLYSKLTVDKSRWQQGNVFSCSVMHEALHNHYTQKSLSLSPGK
clinical score (female mice (Balb/c); Study 1, 1 mg/kg, ip, day 6): −23% | increase in serum amyloid protein A (female mice (Balb/c); Study 1, 3 mg/kg, ip): −36% | splenomegaly (female mice (Balb/c); Study 1, 3 mg/kg, ip): −27% | clinical score (female mice (Balb/c); Study 1, 3 mg/kg, ip, day 6): −32% | colon reduction, length (female mice (Balb/c); Study 1, 3 mg/kg, ip, days 3-6): −21% | body weight loss (female mice (Balb/c); Study 1, 0.3, 1, 3 mg/kg ip): not affected | ratio weight/length (colon) (female mice (Balb/c); Study 1, 0.3, 1, 3 mg/kg ip): not affected | colon reduction, length (female mice (Balb/c); Study 2, 0.3 mg/kg, sc): −13% | colon reduction, ratio weight/length (female mice (Balb/c); Study 2, 0.3 mg/kg, sc): −26% | colon reduction, length (female mice (Balb/c); Study 2, 1 mg/kg, sc): −18% | colon reduction, ratio weight/length (female mice (Balb/c); Study 2, 1 mg/kg, sc): −46% | body weight loss (female mice (Balb/c); Study 2, 1 mg/kg, sc, day 5 to day 7): reduced significantly | clinical score (female mice (Balb/c); Study 2, 1 mg/kg, sc, day 6): −22% | increase in serum amyloid protein A (female mice (Balb/c); Study 2, 3 mg/kg, sc): significantly decreased | splenomegaly (female mice (Balb/c); Study 2, 0.3, 1, 3 mg/kg sc): not improved | colon reduction, length (female mice (Balb/c); Study 3, 0.3 mg/kg, sc): −18% | colon reduction, ratio weight/length (female mice (Balb/c); Study 3, 0.3 mg/kg, sc): −19% | body weight loss (female mice (Balb/c); Study 3, 1 mg/kg, sc): did not have any effect | clinical score (female mice (Balb/c); Study 3, 1 mg/kg, sc): tended to improve | colon reduction, length (female mice (Balb/c); Study 3, 1 mg/kg, sc): −26% | colon reduction, ratio weight/length (female mice (Balb/c); Study 3, 1 mg/kg, sc): −25% | content of IL-1β in colon (female mice (Balb/c); Study 3, 1 mg/kg, sc): tended to improve | serum amyloid A protein (female mice (Balb/c); Study 3, 1 mg/kg, sc): did not have any effect | body weight loss (female mice (Balb/c); Study 3, 0.3 and 1 mg/kg, sc): did not have any effect | clinical score (female mice (Balb/c); Study 3, 0.3 and 1 mg/kg, sc): trended to improve | serum amyloid A protein (female mice (Balb/c); Study 3, 0.3 and 1 mg/kg, sc): did not have any effect | splenomegaly (female mice (Balb/c); Study 3, 0.3 and 1 mg/kg, sc): trended to improve | content of IL-1β in colon (female mice (Balb/c); Study 3, 0.3 and 1 mg/kg, sc (dose of the single value not stated)): −22%
